2 substances from article PMC4090420 can be followed below.

One experiment concerns the target b12 3–5 αIM F25A (human). Kind of experiment: ELISA.
The target of another experiment is b12 3–5 αIM L84A (human). Kind of experiment: ELISA. On the technique in general: In an ELISA, binding on a coated surface is turned into a signal by an enzyme label.
A further experiment has as its target b12 3–5 αIM H24A (human). Kind of experiment: ELISA.
Experiment [1] deals with b12 3–5 αIM (Homo sapiens scaffold (engineered FNfn10)) (UniProt P02751). Kind of experiment: SPR. For orientation: In SPR one partner is held on a chip, and binding of the other changes the refractive index at the surface.

Usually Kd stands for the concentration at which binding is half-saturated. The term koff denotes the first-order rate constant of dissociation. Lower therefore signals a long-lived complex.

Chain of b12 3–5 αIM (Homo sapiens scaffold (engineered FNfn10)) (P02751 whole entry, looked up, change not shown): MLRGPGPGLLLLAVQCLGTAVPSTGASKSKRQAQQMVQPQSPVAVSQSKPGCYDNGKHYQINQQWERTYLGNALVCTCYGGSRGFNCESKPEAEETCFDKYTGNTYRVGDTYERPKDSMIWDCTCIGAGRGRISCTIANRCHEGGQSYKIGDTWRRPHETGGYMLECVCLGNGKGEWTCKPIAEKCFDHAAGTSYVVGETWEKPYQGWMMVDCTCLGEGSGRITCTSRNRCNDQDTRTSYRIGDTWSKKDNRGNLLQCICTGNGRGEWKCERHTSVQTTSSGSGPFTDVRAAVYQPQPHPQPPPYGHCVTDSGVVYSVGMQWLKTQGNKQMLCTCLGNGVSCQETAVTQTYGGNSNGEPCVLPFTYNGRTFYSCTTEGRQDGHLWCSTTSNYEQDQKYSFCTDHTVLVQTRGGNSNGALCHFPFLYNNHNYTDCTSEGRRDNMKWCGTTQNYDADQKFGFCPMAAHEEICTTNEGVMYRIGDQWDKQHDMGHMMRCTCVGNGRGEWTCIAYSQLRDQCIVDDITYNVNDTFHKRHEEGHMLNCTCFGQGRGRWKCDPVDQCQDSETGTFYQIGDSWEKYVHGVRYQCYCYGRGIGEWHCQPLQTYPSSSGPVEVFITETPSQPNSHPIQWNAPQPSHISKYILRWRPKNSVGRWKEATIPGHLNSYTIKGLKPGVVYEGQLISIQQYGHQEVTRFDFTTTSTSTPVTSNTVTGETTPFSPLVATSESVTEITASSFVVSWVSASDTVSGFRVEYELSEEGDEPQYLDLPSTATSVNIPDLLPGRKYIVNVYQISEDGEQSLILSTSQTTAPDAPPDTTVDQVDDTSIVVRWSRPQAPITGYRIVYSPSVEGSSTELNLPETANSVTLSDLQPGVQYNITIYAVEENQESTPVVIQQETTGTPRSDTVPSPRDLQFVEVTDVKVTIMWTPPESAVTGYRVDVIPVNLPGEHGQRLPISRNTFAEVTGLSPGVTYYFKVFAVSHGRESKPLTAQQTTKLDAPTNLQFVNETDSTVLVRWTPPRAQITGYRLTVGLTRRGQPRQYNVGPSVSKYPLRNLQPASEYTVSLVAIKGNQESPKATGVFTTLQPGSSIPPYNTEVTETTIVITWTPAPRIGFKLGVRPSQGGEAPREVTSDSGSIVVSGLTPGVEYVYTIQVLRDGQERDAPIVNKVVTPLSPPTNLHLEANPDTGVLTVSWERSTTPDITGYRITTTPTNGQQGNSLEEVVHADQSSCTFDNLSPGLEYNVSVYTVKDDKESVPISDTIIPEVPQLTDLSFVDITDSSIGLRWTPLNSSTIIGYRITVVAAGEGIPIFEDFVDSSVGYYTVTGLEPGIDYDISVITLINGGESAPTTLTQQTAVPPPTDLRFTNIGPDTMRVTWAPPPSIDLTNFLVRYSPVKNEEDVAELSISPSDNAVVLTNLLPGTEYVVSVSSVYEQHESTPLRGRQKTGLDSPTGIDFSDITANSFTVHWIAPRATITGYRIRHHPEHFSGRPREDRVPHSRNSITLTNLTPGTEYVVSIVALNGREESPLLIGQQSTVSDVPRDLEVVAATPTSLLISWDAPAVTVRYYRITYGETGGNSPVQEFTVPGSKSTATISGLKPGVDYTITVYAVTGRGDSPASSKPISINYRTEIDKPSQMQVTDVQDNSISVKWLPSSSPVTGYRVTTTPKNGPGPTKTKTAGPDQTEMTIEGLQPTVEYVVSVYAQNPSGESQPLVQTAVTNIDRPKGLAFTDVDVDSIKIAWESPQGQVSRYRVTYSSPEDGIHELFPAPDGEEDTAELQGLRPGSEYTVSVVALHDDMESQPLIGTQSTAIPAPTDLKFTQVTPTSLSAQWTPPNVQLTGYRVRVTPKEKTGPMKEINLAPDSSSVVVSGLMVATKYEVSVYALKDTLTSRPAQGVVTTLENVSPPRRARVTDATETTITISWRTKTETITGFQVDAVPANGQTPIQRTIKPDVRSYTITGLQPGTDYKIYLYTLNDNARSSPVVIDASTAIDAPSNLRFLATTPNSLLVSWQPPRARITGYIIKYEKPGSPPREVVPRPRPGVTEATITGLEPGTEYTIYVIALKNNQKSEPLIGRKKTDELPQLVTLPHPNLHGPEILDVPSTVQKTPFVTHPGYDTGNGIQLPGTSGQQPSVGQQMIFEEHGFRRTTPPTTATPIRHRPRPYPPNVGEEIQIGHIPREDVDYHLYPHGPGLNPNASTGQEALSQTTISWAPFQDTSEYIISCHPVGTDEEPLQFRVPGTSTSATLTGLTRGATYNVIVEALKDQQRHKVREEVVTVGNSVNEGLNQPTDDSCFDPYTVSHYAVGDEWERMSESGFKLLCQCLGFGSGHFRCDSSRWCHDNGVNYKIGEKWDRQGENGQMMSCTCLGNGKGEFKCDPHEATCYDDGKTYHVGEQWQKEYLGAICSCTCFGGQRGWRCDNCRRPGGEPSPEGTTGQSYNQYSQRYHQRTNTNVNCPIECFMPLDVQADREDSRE

For the substance b12 MAb (antibody), the fold decrease of binding against wild type b12 3–5 αIM was above 10 fold with b12 3–5 αIM F25A (human), 5 fold with b12 3–5 αIM L84A (human) and above 10 fold with b12 3–5 αIM H24A (human).

For b12 Fab, in experiment [1], the dissociation constant Kd turned out to be 43 nM and the koff came to 0.0068 s⁻¹.
